Data from patent US20090136526A1 (Seagen, published 2009).

T1: CD19 on CD19-positive tumor cell lines (human, UniProt P15391 20-556)
T1 sequence (looked up): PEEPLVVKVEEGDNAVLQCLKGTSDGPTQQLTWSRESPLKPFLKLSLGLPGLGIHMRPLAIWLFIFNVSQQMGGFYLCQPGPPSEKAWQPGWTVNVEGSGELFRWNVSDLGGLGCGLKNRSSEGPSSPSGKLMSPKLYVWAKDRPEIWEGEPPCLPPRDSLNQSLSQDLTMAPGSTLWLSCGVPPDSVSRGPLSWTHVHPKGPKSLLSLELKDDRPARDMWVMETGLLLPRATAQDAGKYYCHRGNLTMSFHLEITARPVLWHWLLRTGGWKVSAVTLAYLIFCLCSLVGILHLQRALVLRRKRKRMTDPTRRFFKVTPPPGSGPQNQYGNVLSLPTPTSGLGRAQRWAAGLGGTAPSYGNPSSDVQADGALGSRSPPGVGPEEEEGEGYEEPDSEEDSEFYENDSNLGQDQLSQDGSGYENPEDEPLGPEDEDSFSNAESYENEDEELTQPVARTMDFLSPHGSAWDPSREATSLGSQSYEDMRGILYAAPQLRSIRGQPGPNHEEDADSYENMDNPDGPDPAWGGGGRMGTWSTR

B1: SJ25-C1 (antibody, from another filing, V domains shown)
VH: EVKLQQSGAELVRPGSSVKISCKASGYAFSSYWMNWVKQRPGQGLEWIGQIYPGDGDTNYNGKFKGQATLTADKSSSTAYMQLSGLTSEDSAVYFCARKTISSVVDFYFDYWGQGTTVTVSS
VL: DIELTQSPKFMSTSVGDRVSVTCKASQNVGTNVAWYQQKPGQSPKPLIYSATYRNSGVPDRFTGSGSGTDFTLTITNVQSKDLADYFCQQYNRYPYTSGGGTKLEI
B2: cBU12 (antibody, V domains shown)
VH: QVTLKESGPGILQPSQTLSLTCSFSGFSLSTSGMGVGWIRQPSGKGLEWLAHIWWDDDKRYNPALKSRLTISKDTSSNQVFLKIASVDTADTAAYYCARMELWSYYFDYWGQGTTLTVSS
VL: ENVLTQSPAIMSASPGEKVTMTCSASSSVSYMHWYQQKSSTSPKLWIYDTSKLASGVPGRFSGSGSGNSHFLTISSMEAEDVATYYCFQGSVYPFTFGSGTKLEIKR

How the values were obtained:
[1] = target: T1, CD19 on CD19-positive tumor cell lines; experiment: cell-based or functional assay
[2] = target: CD19 on CD19-positive tumor cell lines (human) (UniProt P15391); experiment: cell-based or functional assay

| Molecule | IC50 (ng/mL) of anti-CD19 antibody linked with 2°-ADC, cell viability (resazurin, 96 h), CA46 cells [1] [ng/mL] | IC50 (ng/mL) of anti-CD19 antibody linked with 2°-ADC, cell viability (resazurin, 96 h), HS Sultan cells [1] [ng/mL] | IC50 (ng/mL) of anti-CD19 antibody linked with 2°-ADC, cell viability (resazurin, 96 h), MC 116 cells [1] [ng/mL] | IC50 (ng/mL) of anti-CD19 antibody linked with 2°-ADC, cell viability (resazurin, 96 h), Ramos cells [1] [ng/mL] | IC50 (ng/mL) of anti-CD19 antibody linked with 2°-ADC, cell viability (resazurin, 96 h), Toledo cells [1] [ng/mL] | IC50 (ng/mL) of anti-CD19 antibody linked with 2°-ADC, cell viability (resazurin, 96 h), HT cells [1] [ng/mL] | internalization kinetics by FACS, CD21 low Ramos cells [1] [%] | IC50 (ng/mL) of anti-CD19 antibody linked with 2°-ADC, cell viability (resazurin, 96 h), CA46 cells [2] [ng/mL] | IC50 (ng/mL) of anti-CD19 antibody linked with 2°-ADC, cell viability (resazurin, 96 h), HS Sultan cells [2] [ng/mL] | IC50 (ng/mL) of anti-CD19 antibody linked with 2°-ADC, cell viability (resazurin, 96 h), MC 116 cells [2] [ng/mL] | IC50 (ng/mL) of anti-CD19 antibody linked with 2°-ADC, cell viability (resazurin, 96 h), Ramos cells [2] [ng/mL] | IC50 (ng/mL) of anti-CD19 antibody linked with 2°-ADC, cell viability (resazurin, 96 h), Toledo cells [2] [ng/mL] |
| --- | --- | --- | --- | --- | --- | --- | --- | --- | --- | --- | --- | --- |
| B-C3 (antibody) | 17 | 234 | 195 | 13 | 359 |  |  |  |  |  |  |  |
| HIB19 (antibody) | 1 | 97 | 188 | 1 | 1000 | 1000 |  |  |  |  |  |  |
| LT19 (antibody) | 4 | 112 | 192 | 1 | 584 | 111 |  |  |  |  |  |  |
| hBU12 (antibody) |  |  |  |  |  |  | 50 |  |  |  |  |  |
| hBU12-vcMMAE (antibody) |  |  |  |  |  |  | 50 |  |  |  |  |  |
| B1 |  |  |  |  |  |  |  | 4 | 150 | 200 | 3 | 512 |
| B2 | 7 | 100 | 186 | 5 | ~1000 | 238 |  |  |  |  |  |  |
